Data reported in patent US20250262210A1 (TRUSTEES OF COLUMBIA UNIVERSITY IN THE CITY OF NEW YORK, published 2025).

Key:
Test in all cases: IP/MS, LZTR1 wild type-FLAG, U87
USP4 = biological target: T1, USP4 (human, UniProt Q13107 1-963, limits assumed)
T1 sequence (looked up): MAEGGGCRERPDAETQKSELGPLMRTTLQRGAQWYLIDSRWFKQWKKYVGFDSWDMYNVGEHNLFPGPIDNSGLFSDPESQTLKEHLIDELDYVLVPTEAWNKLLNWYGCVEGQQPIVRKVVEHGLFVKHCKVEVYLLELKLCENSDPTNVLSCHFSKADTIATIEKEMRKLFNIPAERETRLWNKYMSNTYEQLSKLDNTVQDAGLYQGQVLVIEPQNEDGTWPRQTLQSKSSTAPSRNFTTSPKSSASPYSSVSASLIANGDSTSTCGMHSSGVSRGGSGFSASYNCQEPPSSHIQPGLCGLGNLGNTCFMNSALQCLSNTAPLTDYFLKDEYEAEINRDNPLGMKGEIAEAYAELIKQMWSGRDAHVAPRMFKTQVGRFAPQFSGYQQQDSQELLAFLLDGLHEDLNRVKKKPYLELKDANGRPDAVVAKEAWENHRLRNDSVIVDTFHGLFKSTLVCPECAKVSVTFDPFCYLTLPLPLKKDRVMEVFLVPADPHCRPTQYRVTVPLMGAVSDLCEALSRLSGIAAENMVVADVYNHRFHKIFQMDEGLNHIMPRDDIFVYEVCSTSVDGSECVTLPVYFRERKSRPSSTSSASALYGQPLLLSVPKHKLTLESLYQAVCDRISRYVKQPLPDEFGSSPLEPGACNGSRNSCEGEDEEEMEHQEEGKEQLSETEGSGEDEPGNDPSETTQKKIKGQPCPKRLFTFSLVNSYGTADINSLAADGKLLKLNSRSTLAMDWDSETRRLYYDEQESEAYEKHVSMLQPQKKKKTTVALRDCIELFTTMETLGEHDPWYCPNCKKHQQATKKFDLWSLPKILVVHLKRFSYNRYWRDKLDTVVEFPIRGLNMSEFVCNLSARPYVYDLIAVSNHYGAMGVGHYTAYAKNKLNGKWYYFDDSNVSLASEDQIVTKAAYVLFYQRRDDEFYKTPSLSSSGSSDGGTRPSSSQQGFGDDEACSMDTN
Procedure, shortened: (§1)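 Extracted peptides in 3% acetonitrile/0.1% formic acid ran on a 50 cm C18 column into an Orbitrap Fusion, with MaxQuant identification and spectral counting.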

PARP14 = PARP14 (human, UniProt Q460N5 1-1801, limits assumed)
Chain of PARP14 (Q460N5 whole entry): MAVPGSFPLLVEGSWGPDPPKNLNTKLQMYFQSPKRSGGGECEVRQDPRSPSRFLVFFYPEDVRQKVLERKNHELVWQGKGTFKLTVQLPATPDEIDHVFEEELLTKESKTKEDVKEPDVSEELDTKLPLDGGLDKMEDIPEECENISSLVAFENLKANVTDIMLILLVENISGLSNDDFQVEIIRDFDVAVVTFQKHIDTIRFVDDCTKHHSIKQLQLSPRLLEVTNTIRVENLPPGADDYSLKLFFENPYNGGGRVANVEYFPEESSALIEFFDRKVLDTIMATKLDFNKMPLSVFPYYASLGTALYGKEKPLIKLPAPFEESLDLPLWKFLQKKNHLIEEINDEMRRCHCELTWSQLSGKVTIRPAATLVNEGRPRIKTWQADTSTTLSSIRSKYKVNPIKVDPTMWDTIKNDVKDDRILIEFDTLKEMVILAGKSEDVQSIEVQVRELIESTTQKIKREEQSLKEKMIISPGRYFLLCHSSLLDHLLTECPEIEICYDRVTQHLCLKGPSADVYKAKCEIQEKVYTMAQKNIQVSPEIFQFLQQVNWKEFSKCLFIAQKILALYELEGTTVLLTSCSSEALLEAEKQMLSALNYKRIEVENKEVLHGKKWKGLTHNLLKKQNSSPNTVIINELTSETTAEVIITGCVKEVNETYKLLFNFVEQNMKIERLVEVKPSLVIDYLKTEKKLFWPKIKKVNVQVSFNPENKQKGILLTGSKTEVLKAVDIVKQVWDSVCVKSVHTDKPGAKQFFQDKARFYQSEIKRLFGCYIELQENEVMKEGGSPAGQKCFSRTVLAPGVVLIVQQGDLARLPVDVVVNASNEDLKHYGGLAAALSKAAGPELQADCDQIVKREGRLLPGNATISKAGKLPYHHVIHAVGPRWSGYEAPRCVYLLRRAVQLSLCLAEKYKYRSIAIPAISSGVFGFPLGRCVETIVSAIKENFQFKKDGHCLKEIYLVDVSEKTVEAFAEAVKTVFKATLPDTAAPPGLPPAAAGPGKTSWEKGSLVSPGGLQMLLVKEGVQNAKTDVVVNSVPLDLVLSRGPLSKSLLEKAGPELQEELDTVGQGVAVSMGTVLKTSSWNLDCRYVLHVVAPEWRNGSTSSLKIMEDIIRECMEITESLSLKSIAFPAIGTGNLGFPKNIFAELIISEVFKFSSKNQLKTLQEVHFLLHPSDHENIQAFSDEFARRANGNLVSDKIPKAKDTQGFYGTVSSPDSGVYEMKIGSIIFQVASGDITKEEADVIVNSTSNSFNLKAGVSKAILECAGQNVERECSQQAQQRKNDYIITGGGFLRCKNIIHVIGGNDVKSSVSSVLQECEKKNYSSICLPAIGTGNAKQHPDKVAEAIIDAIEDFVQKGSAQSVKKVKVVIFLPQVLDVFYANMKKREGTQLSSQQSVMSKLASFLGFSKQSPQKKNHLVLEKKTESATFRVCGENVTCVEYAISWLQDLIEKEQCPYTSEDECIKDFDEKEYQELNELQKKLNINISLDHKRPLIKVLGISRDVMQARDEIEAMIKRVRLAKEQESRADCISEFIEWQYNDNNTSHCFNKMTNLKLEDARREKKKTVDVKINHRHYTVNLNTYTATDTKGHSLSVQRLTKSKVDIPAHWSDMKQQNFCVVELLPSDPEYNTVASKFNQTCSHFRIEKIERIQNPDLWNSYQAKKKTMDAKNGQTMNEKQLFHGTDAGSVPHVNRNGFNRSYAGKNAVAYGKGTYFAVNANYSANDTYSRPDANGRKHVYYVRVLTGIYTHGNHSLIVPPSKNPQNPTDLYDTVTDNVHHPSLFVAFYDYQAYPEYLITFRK
Procedure, shortened: as §1

PPFIBP1 = biological target: T2, PPFIBP1 (human, UniProt Q86W92 1-1011, limits assumed)
T2 sequence (looked up): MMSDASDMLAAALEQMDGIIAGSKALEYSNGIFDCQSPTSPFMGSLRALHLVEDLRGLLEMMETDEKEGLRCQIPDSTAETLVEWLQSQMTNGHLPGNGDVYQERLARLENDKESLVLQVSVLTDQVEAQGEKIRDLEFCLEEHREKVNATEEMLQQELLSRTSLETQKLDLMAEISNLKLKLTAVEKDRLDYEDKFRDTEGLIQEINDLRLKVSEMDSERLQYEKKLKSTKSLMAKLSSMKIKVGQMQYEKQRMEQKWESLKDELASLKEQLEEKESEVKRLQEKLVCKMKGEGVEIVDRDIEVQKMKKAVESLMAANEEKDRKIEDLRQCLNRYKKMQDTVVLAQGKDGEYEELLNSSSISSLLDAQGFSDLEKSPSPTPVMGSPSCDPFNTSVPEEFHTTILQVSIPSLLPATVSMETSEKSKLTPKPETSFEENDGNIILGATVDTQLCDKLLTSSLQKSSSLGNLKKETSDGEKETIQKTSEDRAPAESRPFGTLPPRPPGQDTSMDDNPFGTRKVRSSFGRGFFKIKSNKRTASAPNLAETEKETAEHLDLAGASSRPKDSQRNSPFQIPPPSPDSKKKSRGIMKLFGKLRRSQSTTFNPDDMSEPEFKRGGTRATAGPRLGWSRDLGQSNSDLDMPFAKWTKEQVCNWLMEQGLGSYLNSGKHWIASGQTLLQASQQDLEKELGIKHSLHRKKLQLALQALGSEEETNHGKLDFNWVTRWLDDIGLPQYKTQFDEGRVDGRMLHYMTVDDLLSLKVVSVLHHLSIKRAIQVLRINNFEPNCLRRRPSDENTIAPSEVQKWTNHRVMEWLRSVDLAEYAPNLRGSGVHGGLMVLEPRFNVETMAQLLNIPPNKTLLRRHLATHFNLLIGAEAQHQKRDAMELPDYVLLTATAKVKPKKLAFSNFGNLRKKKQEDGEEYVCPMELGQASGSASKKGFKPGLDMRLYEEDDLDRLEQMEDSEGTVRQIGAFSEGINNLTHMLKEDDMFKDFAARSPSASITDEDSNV
Procedure, shortened: as §1

Measured: binding result

B1: LZTR1-FLAG (other, human, UniProt Q8N653 1-840, looked up)
chain: MAGPGSTGGQIGAAALAGGARSKVAPSVDFDHSCSDSVEYLTLNFGPFETVHRWRRLPPCDEFVGARRSKHTVVAYKDAIYVFGGDNGKTMLNDLLRFDVKDCSWCRAFTTGTPPAPRYHHSAVVYGSSMFVFGGYTGDIYSNSNLKNKNDLFEYKFATGQWTEWKIEGRLPVARSAHGATVYSDKLWIFAGYDGNARLNDMWTIGLQDRELTCWEEVAQSGEIPPSCCNFPVAVCRDKMFVFSGQSGAKITNNLFQFEFKDKTWTRIPTEHLLRGSPPPPQRRYGHTMVAFDRHLYVFGGAADNTLPNELHCYDVDFQTWEVVQPSSDSEVGGAEVPERACASEEVPTLTYEERVGFKKSRDVFGLDFGTTSAKQPTQPASELPSGRLFHAAAVISDAMYIFGGTVDNNIRSGEMYRFQFSCYPKCTLHEDYGRLWESRQFCDVEFVLGEKEECVQGHVAIVTARSRWLRRKITQARERLAQKLEQEAAPVPREAPGVAAGGARPPLLHVAIREAEARPFEVLMQFLYTDKIKYPRKGHVEDVLLIMDVYKLALSFQLCRLEQLCRQYIEASVDLQNVLVVCESAARLQLSQLKEHCLNFVVKESHFNQVIMMKEFERLSSPLIVEIVRRKQQPPPRTPLDQPVDIGTSLIQDMKAYLEGAGAEFCDITLLLDGHPRPAHKAILAARSSYFEAMFRSFMPEDGQVNISIGEMVPSRQAFESMLRYIYYGEVNMPPEDSLYLFAAPYYYGFYNNRLQAYCKQNLEMNVTVQNVLQILEAADKTQALDMKRHCLHIIVHQFTKVSKLPTLRSLSQQLLLDIIDSLASHISDKQCAELGADI
notes: Expressed in HEK 293T, HeLa or U87 cells; used as cell lysate; also called LZTR1 wild type-FLAG; LZTR1 WT; not shown: FLAG tag at the C-terminus
binds: all assays above
